Measurements published in paper PMC4967898, “Peptides interfering with protein-protein interactions in the ethylene signaling pathway delay tomato fruit ripening” (Scientific Reports, 2016).

Biological target: T1, LeETR1 (Solanum lycopersicum, UniProt Q41342)
T1 construct: made in house; host or cells: E. coli
T1 sequence (Q41342 1-754): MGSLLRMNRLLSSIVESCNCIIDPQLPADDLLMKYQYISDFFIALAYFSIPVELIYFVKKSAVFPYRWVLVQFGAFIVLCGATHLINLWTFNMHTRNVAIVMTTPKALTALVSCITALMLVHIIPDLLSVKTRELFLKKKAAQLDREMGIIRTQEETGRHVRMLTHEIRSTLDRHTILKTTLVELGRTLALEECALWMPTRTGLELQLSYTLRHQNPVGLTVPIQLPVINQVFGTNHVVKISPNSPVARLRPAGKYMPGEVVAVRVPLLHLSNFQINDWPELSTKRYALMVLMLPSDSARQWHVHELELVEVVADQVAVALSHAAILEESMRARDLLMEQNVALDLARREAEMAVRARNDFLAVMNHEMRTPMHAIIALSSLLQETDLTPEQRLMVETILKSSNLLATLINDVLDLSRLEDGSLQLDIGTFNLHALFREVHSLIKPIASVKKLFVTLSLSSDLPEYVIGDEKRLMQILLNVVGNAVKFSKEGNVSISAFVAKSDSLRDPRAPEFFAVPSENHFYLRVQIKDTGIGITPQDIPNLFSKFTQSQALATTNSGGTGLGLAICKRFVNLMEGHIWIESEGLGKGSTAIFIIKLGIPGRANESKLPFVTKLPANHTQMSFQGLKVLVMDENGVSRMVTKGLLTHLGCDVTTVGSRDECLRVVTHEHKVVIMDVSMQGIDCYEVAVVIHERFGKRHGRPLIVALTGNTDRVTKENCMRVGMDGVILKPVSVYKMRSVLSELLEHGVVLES
Experiment: MST interaction of labeled LeETR1 with LeEIN2^462–1316
Format: binding, tomato
Details: 0.4 μM LeETR1 labeled with Alexa Fluor 488 succinimidyl-ester, LeEIN2^462–1316 4.69 nM to 9.6 μM, 50 mM Tris-HCl pH 8.0, 300 mM NaCl, 0.015% (w/v) Fos-Choline-16, 80% MST power, independent triplicates, mean +/− standard deviation, read-out: Kd of LeEIN2-LeETR1 complex formation
Source text: Protein-protein interaction of LeEIN2 and LeETR1 was studied by microscale thermophoresis (MST). Thermophoresis, the motion of molecules in a temperature gradient, strongly depends on the hydration-shell, the charge and the size of the moving molecules. Typically, at least one of these features changes when a protein-protein interaction occurs. Thus, MST represents a highly sensitive and reliable tool to study protein-protein interactions. By recording the motion of a fluorescence-labeled molecule in the presence of increasing concentrations of a putative binding partner, the dissociation constant (Kd) reflecting the affinity of the interaction and the stability of the complex can be calculated. Recombinant LeETR1 was labeled with the fluorescent dye Alexa Fluor 488 and 0.4 μM of labeled LeETR1 was mixed with increasing concentrations of LeEIN2^462–1316 until saturation was reached (9.6 μM as final concentration). Binding of receptor and EIN2 was observed as a clear and strong response in the MST signal. […]
Figure 1 Interaction studies of tomato ETR1 and EIN2 via MST. […] Normalized fluorescence as MST signal is plotted against increasing LeEIN2^462–1316 (●) concentrations as described. […]

B1: LeEIN2^462–1316: recombinant C-terminal part of tomato EIN2, expressed in E. coli (protein)
chain: LKSASSRFDAQAFLQTHVPEPYSECNQLGASNAMFGLVEGSSQKQEGAFHVEKSLVSHPDLSTKDPDQLLPESLLDFEKVHQLATIDESKSETTFSAPAVVHPEVPVSAGASPSVKSVCNEVSGVVSVDTSVFNTETVDVAEKTLRIEGDMANDRDDGDSWEEPEEAIKGVSENAQSFISDGPGSYKSLSGKLEDTGSGTGSLSRLAGLGRAARRQLTEALNEFWGQLFDYHGVATAEAKSKKLDIILGLDSKMNPKPAPASLKVESSAYIPSGSARIPEPLINSHVYSPKQQFASNIVDSAYRVPKEPSSTSSMWSNHMKLVGAYVQSSNSNMLDSGERRYSSMRIPATSAGYDQQPATVHGYQITAYLNQLAKERGSDYLNGQLESPSPRSVSSLTSNYAEPLARVSGQKPQSGVSSRAPPGFGNVPVGRNNSMQPTNTTSVDHSSTETAESVAGSANSKKYYSLPDISGRYVPRQDSIVSDARAQWYNSMGFGQSGGRSTYEQAYMSGSLRAGGPQRYEHSPKVCRDAFSLQYSSNSGTGSLWSRQPFEQFGVAGKPDVGSGDHGTVLSSSAQESTSTVDLEAKLLQSFRSCIVKLLKLEGSEWLFRQDDGADEDLIGRIAAREKFLYEAETREISRLTNIGESHFSSNRKPGSAPKPEEMDYTKFLVMSVPHCGEGCVWKVDLIISFGVWCIHRILELSLMESRPELWGKYTYVLNRLQGIVDLAFSKPHSPTSHCFCLQIPAGRQQKASPPPISNGNLPPQAKQGRGKCTTAAMLLEMIKDVETAISCRKGRTGTAAGDVAFPKGKENLASVLKRYKRRLSNKPVGNQEVAGVAGPRKVTLSASSPPFVL
modifications: unlabeled in the MST titration of labeled LeETR1; Alexa Fluor 488 label in the reverse MST titration; Alexa Fluor 568 succinimidyl-ester label in the FRET assay; left off: His10, end not stated, state
notes: recombinant C-terminal part of tomato EIN2, expressed in E. coli
B1 was tested, and the Kd was 619 nM.
